From patent US20230416365A1 (Hoffmann-La Roche, published 2023)

Experiments:
[1] = biological target: T1, human GPRC5D on CHO-hGPRC5D cells (human, UniProt Q9NZD1 1-345); assay: flow cytometry on CHO huGPRC5D cells, PE anti-human IgG Fc secondary
T1 construct: also called CHO huGPRC5D L2

[2] = biological target: T2, human CD28 on CHO cells (parental cell line CHO-k1 ATCC #CCL-61, modified to stably overexpress human CD28) (human, UniProt P10747 19-220); assay: flow cytometry on CHO-hCD28 cells
T2 construct: also called hu CD28; CHO-hCD28

human BCMA on IM-9 cells = biological target: T3, human BCMA on IM-9 cells (human, UniProt Q02223 1-184); assay: flow cytometry on IM-9 cells
T3 construct: also called B-cell maturation antigen
T3 sequence: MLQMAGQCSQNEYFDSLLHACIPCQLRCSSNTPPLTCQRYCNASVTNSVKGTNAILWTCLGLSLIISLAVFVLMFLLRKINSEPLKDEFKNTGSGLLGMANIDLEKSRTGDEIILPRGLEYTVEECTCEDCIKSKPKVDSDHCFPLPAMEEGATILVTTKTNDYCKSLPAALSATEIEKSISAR

[3] = biological target: T4, human FAP on 3T3-huFAP cells (clone 19) (human, UniProt Q12884 1-760); assay: flow cytometry on 3T3-huFAP cells, median fluorescence intensity (axis MFI APC)
[4] = biological target: T5, human CEA (CEACAM5) on cells (MKN45 cells; MV3 cells engineered to express human CEACAM5) (human, UniProt P06731 35-685); assay: flow cytometry on MV3 cells modified to express CEA
T5 sequence: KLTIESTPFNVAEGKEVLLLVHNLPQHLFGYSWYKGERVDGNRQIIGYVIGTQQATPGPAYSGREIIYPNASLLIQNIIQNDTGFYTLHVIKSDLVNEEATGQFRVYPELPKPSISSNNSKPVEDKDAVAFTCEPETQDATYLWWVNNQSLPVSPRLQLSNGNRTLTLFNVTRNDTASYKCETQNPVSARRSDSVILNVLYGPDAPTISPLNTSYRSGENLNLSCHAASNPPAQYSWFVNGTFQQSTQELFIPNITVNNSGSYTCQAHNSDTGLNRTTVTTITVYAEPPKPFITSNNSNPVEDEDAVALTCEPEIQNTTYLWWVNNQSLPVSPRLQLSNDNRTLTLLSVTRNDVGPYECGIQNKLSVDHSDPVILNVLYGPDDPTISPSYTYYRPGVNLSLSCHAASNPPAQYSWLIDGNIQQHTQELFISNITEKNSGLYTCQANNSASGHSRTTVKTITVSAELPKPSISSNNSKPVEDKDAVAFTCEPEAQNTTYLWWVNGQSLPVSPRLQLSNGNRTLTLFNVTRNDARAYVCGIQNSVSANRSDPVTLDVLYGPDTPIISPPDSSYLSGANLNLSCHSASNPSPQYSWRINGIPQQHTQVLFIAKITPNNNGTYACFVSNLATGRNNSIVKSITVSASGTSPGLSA

[5] = biological target: T6, biotinylated huCD28-Fc (dimeric CD28-Fc construct with a monovalent biotinylated avi-tag) (human, UniProt P10747 19-152, biotinylated at the C-terminal avi tag); assay: SPR, ProteOn XPR36, huCD28-Fc immobilised, bispecific as analyte
T6 construct: not shown: hum IgG1 Fc fragment with hole and PG-LALA mutations; hum IgG1 Fc fragment with knob and PG-LALA mutations

[6] = biological target: T2, human CD28 on CHO cells (parental cell …); assay: binding to CHO cells expressing human CD28 (by the table's title)
[7] = biological target: T6, biotinylated huCD28-Fc (dimeric CD28-Fc …); assay: SPR, ProteOn XPR36, huCD28-Fc on NLC chip, bispecific as analyte
[8] = biological target: T4, human FAP on 3T3-huFAP cells (clone 19); assay: flow cytometry on 3T3-huFAP cells, FAP-CD28 1+1 constructs, MFI (PE)
[9] = biological target: T2, human CD28 on CHO cells (parental cell …); assay: flow cytometry on CHO cells stably expressing human CD28, FAP-CD28 1+1 constructs, MFI (PE)

B1: GPRC5D (5E11)-CD28 (SA_Variant 8) 1+1 format (Molecule 16B) (bispecific antibody, human IgG1, kappa, L234A L235A)
heavy 1: not shown
light 1: QVQLVQSGAEVKKPGASVKVSCKASGYTFTSYYIHWVRQAPGQGLEWIGSIYPGNVQTNYNEKFKDRATLTVDTSISTAYMELSRLRSDDTAVYFCTRSHYGLDFNFDVWGQGTTVTVSSASVAAPSVFIFPPSDEQLKSGTASVVCLLNNFYPREAKVQWKVDNALQSGNSQESVTEQDSKDSTYSLSSTLTLSKADYEKHKVYACEVTHQGLSSPVTKSFNRGEC
heavy 2: EVQLLESGGGLVQPGGSLRLSCAASGFTFSKYAMAWVRQAPGKGLEWVASISTGGVNTYYADSVKGRFTISRDNSKNTLYLQMNSLRAEDTAVYYCATHTGDYFDYWGQGTMVTVSSASTKGPSVFPLAPSSKSTSGGTAALGCLVEDYFPEPVTVSWNSGALTSGVHTFPAVLQSSGLYSLSSVVTVPSSSLGTQTYICNVNHKPSNTKVDEKVEPKSCDKTHTCPPCPAPEAAGGPSVFLFPPKPKDTLMISRTPEVTCVVVDVSHEDPEVKFNWYVDGVEVHNAKTKPREEQYNSTYRVVSVLTVLHQDWLNGKEYKCKVSNKALGAPIEKTISKAKGQPREPQVCTLPPSRDELTKNQVSLSCAVKGFYPSDIAVEWESNGQPENNYKTTPPVLDSDGSFFLVSKLTVDKSRWQQGNVFSCSVMHEALHNHYTQKSLSLSP
light 2: EIVLTQSPGTLSLSPGERATLSCRASQSVSISGINLMNWYQQKPGQQPKLLIYHASILASGIPDRFSGSGSGTDFTLTISRLEPEDFAVYYCQQTRESPLTFGQGTRLEIKRTVAAPSVFIFPPSDRKLKSGTASVVCLLNNFYPREAKVQWKVDNALQSGNSQESVTEQDSKDSTYSLSSTLTLSKADYEKHKVYACEVTHQGLSSPVTKSFNRGEC
notes: huIgG1 PG-LALA CrossFab; also called P1AF2954
Q: Does B1 bind [1]?
A: binds

Q: And the EC50 [2]?
A: 74.2 nM

B2: anti-BCMA-CD28 (SA_Variant 15) 1+1 format (Molecule 16D) (bispecific antibody, human IgG1, kappa, L234A L235A)
heavy 1: not shown
light 1: QVQLVQSGAEVKKPGASVKVSCKASGYTFTSYYIHWVRQAPGQGLEWIGSIYPGNVQTNYNEKFKDRATLTVDTSISTAYMELSRLRSDDTAVYFCTRSHYGLDWNFDVWGQGTTVTVSSASVAAPSVFIFPPSDEQLKSGTASVVCLLNNFYPREAKVQWKVDNALQSGNSQESVTEQDSKDSTYSLSSTLTLSKADYEKHKVYACEVTHQGLSSPVTKSFNRGEC
heavy 2: EVQLLESGGGLVQPGGSLRLSCAASGFTFSSYAMNWVRQAPGKGLEWVSAITASGGSTYYADSVKGRFTISRDNSKNTLYLQMNSLRAEDTAVYYCARYWPMSLWGQGTLVTVSSASTKGPSVFPLAPSSKSTSGGTAALGCLVEDYFPEPVTVSWNSGALTSGVHTFPAVLQSSGLYSLSSVVTVPSSSLGTQTYICNVNHKPSNTKVDEKVEPKSCDKTHTCPPCPAPEAAGGPSVFLFPPKPKDTLMISRTPEVTCVVVDVSHEDPEVKFNWYVDGVEVHNAKTKPREEQYNSTYRVVSVLTVLHQDWLNGKEYKCKVSNKALGAPIEKTISKAKGQPREPQVCTLPPSRDELTKNQVSLSCAVKGFYPSDIAVEWESNGQPENNYKTTPPVLDSDGSFFLVSKLTVDKSRWQQGNVFSCSVMHEALHNHYTQKSLSLSP
light 2: EIVLTQSPGTLSLSPGERATLSCRASQSVSAYYLAWYQQKPGQAPRLLMYDASIRATGIPDRFSGSGSGTDFTLTISRLEPEDFAVYYCQQYERWPLTFGQGTKVEIKRTVAAPSVFIFPPSDRKLKSGTASVVCLLNNFYPREAKVQWKVDNALQSGNSQESVTEQDSKDSTYSLSSTLTLSKADYEKHKVYACEVTHQGLSSPVTKSFNRGEC
notes: huIgG1 PG-LALA CrossFab; also called P1AE9053
Q: What does the source list for B2?
A: EC50 (human BCMA on IM-9 cells): 3.96 nM; EC50 [2]: 9.9 nM

B3: FAP-CD28SA 2+1 (P1AD5231) (bispecific antibody, human IgG1, kappa, L234A L235A)
heavy chain CD28(SA) VLCH1 - FAP(4B9) VHCH1 EE - Fc knob PGLALA: not shown
heavy chain FAP(4B9) VHCH1 EE - Fc hole PGLALA: EVQLLESGGGLVQPGGSLRLSCAASGFTFSSYAMSWVRQAPGKGLEWVSAIIGSGASTYYADSVKGRFTISRDNSKNTLYLQMNSLRAEDTAVYYCAKGWFGGFNYWGQGTLVTVSSASTKGPSVFPLAPSSKSTSGGTAALGCLVEDYFPEPVTVSWNSGALTSGVHTFPAVLQSSGLYSLSSVVTVPSSSLGTQTYICNVNHKPSNTKVDEKVEPKSCDKTHTCPPCPAPEAAGGPSVFLFPPKPKDTLMISRTPEVTCVVVDVSHEDPEVKFNWYVDGVEVHNAKTKPREEQYNSTYRVVSVLTVLHQDWLNGKEYKCKVSNKALGAPIEKTISKAKGQPREPQVCTLPPSRDELTKNQVSLSCAVKGFYPSDIAVEWESNGQPENNYKTTPPVLDSDGSFFLVSKLTVDKSRWQQGNVFSCSVMHEALHNHYTQKSLSLSP
CD28(SA) VHCL: QVQLVQSGAEVKKPGASVKVSCKASGYTFTSYYIHWVRQAPGQGLEWIGCIYPGNVNTNYNEKFKDRATLTVDTSISTAYMELSRLRSDDTAVYFCTRSHYGLDWNFDVWGQGTTVTVSSASVAAPSVFIFPPSDEQLKSGTASVVCLLNNFYPREAKVQWKVDNALQSGNSQESVTEQDSKDSTYSLSSTLTLSKADYEKHKVYACEVTHQGLSSPVTKSFNRGEC
FAP(4B9) VLCL RK: EIVLTQSPGTLSLSPGERATLSCRASQSVTSSYLAWYQQKPGQAPRLLINVGSRRATGIPDRFSGSGSGTDFTLTISRLEPEDFAVYYCQQGIMLPPTFGQGTKVEIKRTVAAPSVFIFPPSDRKLKSGTASVVCLLNNFYPREAKVQWKVDNALQSGNSQESVTEQDSKDSTYSLSSTLTLSKADYEKHKVYACEVTHQGLSSPVTKSFNRGEC
notes: monovalent for CD28, bivalent for FAP; also called Molecule G; FAP (4B9)-CD28 (SA) 2+1
Q: Which “EC50 (read off the curve)” value [3] does the source give for B3 here?
A: ~0.3 nM

B4: CEA (A5H1EL1D)-CD28 (SA_Variant 15) 1+1 format (Molecule 11C) (bispecific antibody, human IgG1, kappa, L234A L235A)
heavy 1: EIVLTQSPATLSLSPGERATLSCRASSSVTYIHWYQQKPGQAPRSWIYATSNLASGIPARFSGSGSGTDFTLTISSLEPEDFAVYYCQHWSSKPPTFGQGTKLEIKSSASTKGPSVFPLAPSSKSTSGGTAALGCLVKDYFPEPVTVSWNSGALTSGVHTFPAVLQSSGLYSLSSVVTVPSSSLGTQTYICNVNHKPSNTKVDKKVEPKSCDKTHTCPPCPAPEAAGGPSVFLFPPKPKDTLMISRTPEVTCVVVDVSHEDPEVKFNWYVDGVEVHNAKTKPREEQYNSTYRVVSVLTVLHQDWLNGKEYKCKVSNKALGAPIEKTISKAKGQPREPQVCTLPPSRDELTKNQVSLSCAVKGFYPSDIAVEWESNGQPENNYKTTPPVLDSDGSFFLVSKLTVDKSRWQQGNVFSCSVMHEALHNHYTQKSLSLSP
light 1: EVQLLESGGGLVQPGGSLRLSCAASGFTFTDYYMNWVRQAPGKGLEWLGFIGNKANAYTTEYSASVKGRFTISRDKSKNTLYLQMNSLRAEDTATYYCTRDRGLRFYFDYWGQGTTVTVSSASVAAPSVFIFPPSDEQLKSGTASVVCLLNNFYPREAKVQWKVDNALQSGNSQESVTEQDSKDSTYSLSSTLTLSKADYEKHKVYACEVTHQGLSSPVTKSFNRGEC
heavy 2: not shown
light 2: not shown
notes: huIgG1 PG-LALA CrossFab; also called P1AE4775
Q: B4 was tested. Which EC50 [4] did it give?
A: 20.4 nM

Q: What about the Kd [5] of the same binder?
A: 10 nM

Q: And the koff [5]?
A: 0.00264 s⁻¹

Q: What about the kon [5] of the same binder?
A: 259000 M⁻¹ s⁻¹

B5: FAP (4B9) - CD28 (CD28(SA)_Variant 27) 1+1 (bispecific antibody, human IgG1, kappa, L234A L235A)
heavy 1: EIVLTQSPGTLSLSPGERATLSCRASQSVTSSYLAWYQQKPGQAPRLLINVGSRRATGIPDRFSGSGSGTDFTLTISRLEPEDFAVYYCQQGIMLPPTFGQGTKVEIKSSASTKGPSVFPLAPSSKSTSGGTAALGCLVKDYFPEPVTVSWNSGALTSGVHTFPAVLQSSGLYSLSSVVTVPSSSLGTQTYICNVNHKPSNTKVDKKVEPKSCDKTHTCPPCPAPEAAGGPSVFLFPPKPKDTLMISRTPEVTCVVVDVSHEDPEVKFNWYVDGVEVHNAKTKPREEQYNSTYRVVSVLTVLHQDWLNGKEYKCKVSNKALGAPIEKTISKAKGQPREPQVCTLPPSRDELTKNQVSLSCAVKGFYPSDIAVEWESNGQPENNYKTTPPVLDSDGSFFLVSKLTVDKSRWQQGNVFSCSVMHEALHNHYTQKSLSLSP
light 1: EVQLLESGGGLVQPGGSLRLSCAASGFTFSSYAMSWVRQAPGKGLEWVSAIIGSGASTYYADSVKGRFTISRDNSKNTLYLQMNSLRAEDTAVYYCAKGWFGGFNYWGQGTLVTVSSASVAAPSVFIFPPSDEQLKSGTASVVCLLNNFYPREAKVQWKVDNALQSGNSQESVTEQDSKDSTYSLSSTLTLSKADYEKHKVYACEVTHQGLSSPVTKSFNRGEC
heavy 2: not shown
light 2: not shown
notes: huIgG1 PG-LALA CrossFab 1+1; also called P1AE3140
Q: Which results are given for B5?
A: Kd [6]: 5.4 nM; Kd [7]: 5.4 nM; koff [7]: 0.00121 s⁻¹; kon [7]: 227000 M⁻¹ s⁻¹; binding result [8]: binds; EC50 (read off the curve) [9]: ~3 nM
